The target of the assay is T1, tau in human tauopathy brain tissue (neurofibrillary tangles) (Homo sapiens, UniProt P10636).
T1 construct: microtubule associated protein tau, human, endogenous in brain; also called NFT tau; tau pathology in AD, FTD and PSP cases; source: endogenous, formalin fixed paraffin embedded human brain tissue (hippocampal region; AD, FTD, PSP cases)
In words: immunostaining of cells or tissue; paraffin sections of mouse brain (rTg4510 and nontransgenic; 4.5, 6, 8.5, 10 months) or of human hippocampal tissue; citrate antigen retrieval; MHT2 overnight; ABC/DAB detection.

T1 sequence (P10636 whole entry): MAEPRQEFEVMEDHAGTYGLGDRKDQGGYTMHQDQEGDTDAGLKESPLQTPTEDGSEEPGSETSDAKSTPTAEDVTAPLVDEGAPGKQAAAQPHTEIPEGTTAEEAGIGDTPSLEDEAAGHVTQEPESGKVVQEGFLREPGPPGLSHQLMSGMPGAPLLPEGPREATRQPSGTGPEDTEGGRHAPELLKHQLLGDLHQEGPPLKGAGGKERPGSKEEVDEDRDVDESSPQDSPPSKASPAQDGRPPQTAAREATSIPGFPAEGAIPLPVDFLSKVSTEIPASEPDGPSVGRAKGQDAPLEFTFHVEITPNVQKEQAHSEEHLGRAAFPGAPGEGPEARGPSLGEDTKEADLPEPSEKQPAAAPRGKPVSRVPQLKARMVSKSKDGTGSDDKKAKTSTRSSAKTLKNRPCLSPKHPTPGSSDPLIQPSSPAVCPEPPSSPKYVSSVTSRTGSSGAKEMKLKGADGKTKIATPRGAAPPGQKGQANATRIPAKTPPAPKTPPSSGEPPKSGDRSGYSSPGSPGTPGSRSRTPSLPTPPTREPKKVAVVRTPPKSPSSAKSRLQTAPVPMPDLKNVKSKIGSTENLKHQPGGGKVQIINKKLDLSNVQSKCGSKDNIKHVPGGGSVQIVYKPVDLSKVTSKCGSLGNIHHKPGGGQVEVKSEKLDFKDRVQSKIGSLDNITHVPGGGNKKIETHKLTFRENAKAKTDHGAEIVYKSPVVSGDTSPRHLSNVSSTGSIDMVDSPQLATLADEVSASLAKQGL

B1: MHT2 monoclonal antibody (antibody, V domains shown)
VH: EVQLQQSGAELVRPGALVKLSCKASGFNIKDYYMHWVKQRPEQGLEWIGWIDPENGNTIYDPKFQGKASITADTSSNTAYLQLSSLTSEDTAVYYCSSYYDYDYWG
VL: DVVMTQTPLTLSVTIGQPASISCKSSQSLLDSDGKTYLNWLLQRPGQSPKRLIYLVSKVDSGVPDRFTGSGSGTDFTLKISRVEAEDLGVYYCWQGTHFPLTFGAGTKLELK
notes: Isotype IgG1; For the BLI experiment only, the antibody was biotinylated with EZ-Link NHS-PEG4 and held on streptavidin sensors; also called antibody MHT2
B1: the binding result is “binds”.

Values taken from paper PMC6160062, “Designing antibodies against LRRK2-targeted tau epitopes” (PLoS ONE, 2018).
